# Laboratory results as given in US20240190946A1 (AUGMENTA BIOWORKS, published 2024).
# Assays:
# [1] = biological target: T1, Sino CoV2 S2 (spike protein 2) (SARS-COV-2, UniProt P0DTC2 686-1213); assay: Carterra LSA; Carterra LSA
# T1 construct: domain: S2 (spike protein 2)
# [2] = biological target: SARS-COV-2 spike (1+2) protein on pseudotyped lentivirus (SARS-COV-2, UniProt P0DTC2 14-1273); assay: cell-based or functional assay
# [3] = biological target: T2, Sino CoV2 RBD (Receptor Binding Domain) (SARS-COV-2, UniProt P0DTC2 319-541); assay: ForteBio; ForteBio
# [4] = biological target: T2, Sino CoV2 RBD (Receptor Binding Domain); assay: Carterra LSA; Carterra LSA
# [5] = biological target: T2, Sino CoV2 RBD (Receptor Binding Domain); assay: instrument not stated
# [6] = biological target: T3, NAC CoV2 S1 (SARS-COV-2, UniProt P0DTC2 14-674); assay: instrument not stated
# T3 construct: domain: S1
# [7] = biological target: T1, Sino CoV2 S2 (spike protein 2); assay: Carterra LSA
# [8] = biological target: T2, Sino CoV2 RBD (Receptor Binding Domain); assay: Carterra LSA
# [9] = biological target: T4, Sino SARS1 S1 (SARS1, UniProt P59594 14-667); assay: Carterra LSA
# T4 construct: domain: S1
# [10] = biological target: T1, Sino CoV2 S2 (spike protein 2); assay: ForteBio; ForteBio
binder,measurement,setting,value
"SC2 antibody 3388 (antibody, V domains shown, also called Anti-SARS-COV-2 antibody 3388) VH: QVQLVESGGGVVQPGRSLRLSCAASGFTFSSYAMHWVRQAPGKGLEWVAVISYDGSNKYYADSVKGRFTISRDNSKNTLYLQMNSLRAEDTAVYYCAREGNIVATISLDYWGQGTLVTVSS VL: not shown",Kd,[1],10 nM
"anti-SARS-COV-2 (SC2) antibody 3417 (antibody, V domains shown, also called SC2 Ab 3417) VH: QVQLQESGPGLLKPSQTLSLTCTVSGVSIRNSNYFWNWIRRPAGKGLEWIGRMHSGGTTNYNPSLKSRVTVSSDAARNQFSLELTSVTAADTAVYYCARDDPLNRFAAFQIWGRGTLVTVSS VL: QSVLTQPPSVSAAPGQKVTISCSGSSSNIGNKYISWYQQLPGTAPKLLIYDNNKRPSGIPDRFSGSKSGTSATLGITGLQTGDEADYYCGTWDSSLSVFYVFGTGTKVTVLG",neutralization of infection of HEK293 cells by spike-pseudotyped lentivirus,[2],~70%
same,Kd,[3],< 0.001 nM
same,Kd,[1],63 nM
same,Kd,[4],7.2 nM
"SC2 antibody 3705 (scFv, also called Anti-SARS-COV-2 antibody 3705) scFv: LEIVMTQSPATLSVSPGERATLSCRASQSVSNNLAWYQQKPGQAPRLLIYGASTRATGIPARFSGSGSGTEFTLTISSLQSEDFAVYYCQQYNDWPPSWTFGQGTKVEIKGGGGSGGGGSGGGGSQVQLVQSGAEVMQVGASVKVSCKASGYTFTSYGISWVRQAPGQGLEWMGWINTYNGNTNYAQKLQGRVTMTTDTSTTTAYMELRSLRSDDTAVYYCARVAVGYCSGGSCYYFDYWGQGTLVTVSSGGGGSGGQHHHHHHGAEQKLISEEDLGSGKPIPNPLLGLDSTS",neutralization of infection of HEK293 cells by spike-pseudotyped lentivirus,[2],100%
same,Kd,[5],1.3 nM
same,Kd,[6],57 nM
"SC2 antibody 3947 (antibody, V domains shown, also called Anti-SARS-COV-2 antibody 3947) VH: QLQLQESGSGLVKPSQTLSLTCAVSGGSVSSGGYSWSWIRQPPGKGLEWIGYIYDSGITSYNPSLKSRLTISIDRSKNQFSLGLSSVTAADTAVYYCARVRRNTSGSFSTGHFDYWGQGTLVTVSS VL: QSVLTQPPSVSASPGQTVTISCSGSTSNIGGNYVSWYQHLPGTAPKLLIYDSNKRPSGIPDRFSGSKSGTSATLGITGLQTEDEADYYCGTWDYRLSGAVFGGGTKLTVL",Kd,[7],25 nM
"SC2 antibody 4083 (antibody, V domains shown, also called Anti-SARS-COV-2 antibody 4083) VH: QLQLQESGSGLVKPSQTLSLTCAVSGGSVSSGGYSWSWIRQPPGKGLEWIGYIYDSGITSYNPSLKSRLTISIDRSKNQFSLGLSSVTAADTAVYYCARVRRNTSGSFSTGHFDYWGQGTLVTVSS VL: QSVLTQPPSVSAVPGQKVTISCSGNNSNIGNNLVSWYQQLPGTAPKLLIYNNNRRPSGIPDRFSGSKSGTSATLGITGLQTGDEAAYYCAARDSSLSAVVFGGGTKLTVL",Kd,[7],41 nM
"SC2 antibody 3969 (antibody, V domains shown, also called Anti-SARS-COV-2 antibody 3969) VH: QVQLVESGGGVVQPGRSLRLSCAASGFTFSSYGMHWVRQAPGKGLEWVAVISYDGSNKYYADSVKGRFTISRDNSKNTLYLQMNSLRAEDTAVYYCAKGVGDYAVWGQGTLVTVSS VL: QSALTQPASVSGSPGQSITISCTGTNSDIGGYDYVSWYQQHPGKAPKLMIFDVNNRPSGVSNRFSGSKSGNTASLTISELQSADEADYFCSSFSTRNSLVVFGGGTKLTVL",Kd,[8],105 nM
same,Kd,[9],28 nM
"SC2 antibody 3396 (antibody, V domains shown, also called Anti-SARS-COV-2 antibody 3396) VH: GVQLVESGGGLVQPGRSLRVSCAASGFTFADYAMHWVRQAPGKGLEWVSGISWNSGNIAYADSVKGRFTISRDNAKNSLYLQMDSLRPDDTALYYCVKASTLYYYFYMDVWGKGTTVTVSS VL: QSALTQPPSASGSPGQSVTISCTGTSSDVGGYDYVSWYQQHPGKAPKFMIYEVSKRPSGVPDRFSGSKSGNTASLTVSGLQAEDEADYYCCSYAGSNNYVFGTGTKVTVLG",neutralization of infection of HEK293 cells by spike-pseudotyped lentivirus,[2],~50%
same,Kd,[10],122 nM
same,Kd,[3],22 nM
"SC2 antibody 3908 (antibody, V domains shown, also called Anti-SARS-COV-2 antibody 3908) VH: EVQLVESRGGLVQPGGSLRLSCAATGFTLSSFDMHWVRQATGKGLEWVSAIGTAGDTYYPGSVKGRFTISRENAKNSLYLQMNSLRAGDTAVYYCARGTWLRDYNFWSGYNYYFDYWGQGTLVTVSS VL: QSALTQPPSASGSPGQSVTISCTGTSSDVGGYIYVSWYQQHPGKAPKLIIYEVSKRPSGVPDRFSGSKSGNTASLTVSGLQAEDEADYYCSSYADSNNYVFGSGTRVTVLG",Kd,[10],74 nM
"SC2 antibody 3387 (antibody, V domains shown) VH: QVQLVQSGAEVMQVGASVKVSCKASGYTFTSYGISWVRQAPGQGLEWMGWINTYNGNTNYAQKLQGRVTMTTDTSTTTAYMELRSLRSDDTAVYYCARVAVGYCSGGSCYYFDYWGQGTLVTVSS VL: not shown",neutralization of infection of HEK293 cells by spike-pseudotyped lentivirus,[2],~45%
